The text below walks through data of US20170355757A1 (Regeneron, published 2017).

T1: hC5a (human, UniProt P01031 678-751)
T1 sequence (looked up): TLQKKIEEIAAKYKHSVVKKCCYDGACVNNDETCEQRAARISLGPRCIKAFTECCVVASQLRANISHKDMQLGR

B1: H4H12166P4 (antibody, human IgG4, V domains shown)
VH: QVQLQESGPGLVKPSETLSLTCTVSGDSVSSSYWTWIRQPPGKGLEWIGYIYYSGSSNYNPSLKSRATISVDTSKNQFSLKLSSVTAADTAVYYCAREGNVDTTMIFDYWGQGTLVTVSS
VL: AIQMTQSPSSLSASVGDRVTITCRASQGIRNDLGWYQQKPGKAPKLLIYAASSLQSGVPSRFAGRGSGTDFTLTISSLQPEDFATYYCLQDFNYPWHFGQGTKVEIK
notes: histidine-mutated CDR variant of H4H12166P; human IgG4 (S108P)
B2: H4H12166P6 (antibody, human IgG4, V domains shown)
VH: B1 VH with T103H
VL: B1 VL with H97T
notes: as for B1
B3: H4H12166P8 (antibody, human IgG4, V domains shown)
VH: B1 VH with T103H
VL: B1 VL with L89H, H97T
notes: as for B1
B4: H4H12166P10 (antibody, human IgG4, V domains shown)
VH: B1 VH with F107H
VL: B1 VL
notes: as for B1
B5: H4H12166P7 (antibody, human IgG4, V domains shown)
VH: B1 VH with G99H
VL: B1 VL
notes: as for B1
B6: H4H12166P9 (antibody, human IgG4, V domains shown)
VH: B1 VH with T103H
VL: B1 VL
notes: as for B1
B7: H4H12166P5 (antibody, human IgG4, V domains shown)
VH: B1 VH with F107H
VL: B1 VL with H97T
notes: as for B1
B8: H2aM11684N (antibody, mouse IgG2, V domains shown)
VH: QVQLQESGPGLVKPSQTLSLTCTVSGGSISSGAYHWSWIRQHPGKGLEWIGYIYYNGDTYYNPSLKSRVTISVDTSKNQFFLKVTSVTAADTAMYYCAGEKQLTAFDIWGQGTLVTVSS
VL: VIQMTQSPSSLSASVGDRVTITCRASQDINNFLNWYQQKLGKAPKLLISDASNLQTGVPSRFSGSGSGTDFTFTISSLQPEDIAAYYCQQYDHFPYTFGQGTRLENN
B9: H2aM11695N (antibody, mouse IgG2, V domains shown)
VH: QVHLVQSGAEVKKPGASVKVSCKVSGNTLTELSMHWVRQAPGKGLEWMGGFDPEDGDTIYSQKFQGRVTLTEDTSTDTAYMELSSLRSEDTAVYYCSTVGGPTSDCWGQGTLVTVSS
VL: DIQMTQSPSSLSASVGDRVTITCQASQDISNYLNWYQQKPGKAPKVLIFDASNLEPGVPSRFSGSGSGTDFTFTIISLQPEDIATYYCQQYDNLPITFGQGTRLDIK
B10: H2aM11694N (antibody, mouse IgG2, V domains shown)
VH: EVQLVESGGGVVRPGGSLRLSCAASGFTFDDYGMTWVRQAPGKGLEWVSGINWNGDSTEYSDSVKGRFTISRDNAKNSLYLQMNSLRAEDTAFYHCARENNWNFYFDYWGQGTLVTVSS
VL: EIVMTQSPATLSVSRGERATLSCRASQSVSSNLAWYQQKLGQAPRLLIYGASTRATGIPARFSGSGSGTEFTLTISSLQSEDFAVYYCQQYNNWPWTFGQGTKVEIK
B11: H2aM11682N (antibody, mouse IgG2, V domains shown)
VH: QEQLVQSGAEVKKPGASVKVSCKASGYTFTGYYIHWVRQAPGLGLEWMGWINPNSGGTKYAQKFQGRVTMTRDTSINTAYMELKRLKSDDSAVYYCARDAPPHDVFDIWGQGTLVTVSS
VL: DIQMTQSPSSLSASVGDRVTITCRASQGIRNDLGWYQQKPGKAPKRLIYAASSLQIGVPSRFSGSGSGTEFTLTISSLQPEDFATYYCLQHNSYPLTFGGGTKVEIK

Changes are numbered by the printed parent chain. In names and notes the source's numbering stands.

For the first assay, the target named is T2, human C5 (human, UniProt P01031 19-1676). The experiment in a line: cell-based or functional assay.
For the molecule B1, the “IC50, inhibition of CDC of Daudi cells, 1.66% human serum, 2 nM anti-CD20 antibody” value was determined as 3.5 nM.
Turning to B2, the “IC50, inhibition of CDC of Daudi cells, 1.66% human serum, 2 nM anti-CD20 antibody” value was 3 nM.
Consider B3, for which the “IC50, inhibition of CDC of Daudi cells, 1.66% human serum, 2 nM anti-CD20 antibody” value was determined as 4.1 nM.
On to B4, for which the “IC50, inhibition of CDC of Daudi cells, 1.66% human serum, 2 nM anti-CD20 antibody” value turned out to be 12 nM.
As to B5, the “IC50, inhibition of CDC of Daudi cells, 1.66% human serum, 2 nM anti-CD20 antibody” value was 7.3 nM.
For the molecule B6, the “IC50, inhibition of CDC of Daudi cells, 1.66% human serum, 2 nM anti-CD20 antibody” value is 3.9 nM.
B7: the “IC50, inhibition of CDC of Daudi cells, 1.66% human serum, 2 nM anti-CD20 antibody” value amounted to 4.9 nM.

The next assay has as its target African green monkey C5 (African green monkey). In words: cell-based or functional assay.
Take B1: the “IC50, inhibition of CDC of Daudi cells, 1.66% African Green monkey serum, 10 nM anti-CD20 antibody” value was found to be 7.9 nM.
In the case of B2, the “IC50, inhibition of CDC of Daudi cells, 1.66% African Green monkey serum, 10 nM anti-CD20 antibody” value worked out at 9.9 nM.
As for B3, the “IC50, inhibition of CDC of Daudi cells, 1.66% African Green monkey serum, 10 nM anti-CD20 antibody” value was greater than 20 nM and the “Max % Inhibition of CDC of Daudi cells, 1.66% African Green monkey serum, 10 nM anti-CD20 antibody” value (shortened to “Max % Inhibition of CDC of Daudi cells”) was 79%.
Turning to B4, the “IC50, inhibition of CDC of Daudi cells, 1.66% African Green monkey serum, 10 nM anti-CD20 antibody” value was greater than 100 nM and the “Max % Inhibition of CDC of Daudi cells” value was 34%.
B5: the “IC50, inhibition of CDC of Daudi cells, 1.66% African Green monkey serum, 10 nM anti-CD20 antibody” value was greater than 60 nM and the “Max % Inhibition of CDC of Daudi cells” value came to 61%.
On to B6, for which the “IC50, inhibition of CDC of Daudi cells, 1.66% African Green monkey serum, 10 nM anti-CD20 antibody” value is greater than 10 nM and the “Max % Inhibition of CDC of Daudi cells” value worked out at 85%.
In the case of B7, the “IC50, inhibition of CDC of Daudi cells, 1.66% African Green monkey serum, 10 nM anti-CD20 antibody” value is greater than 30 nM and the “Max % Inhibition of CDC of Daudi cells” value is 75%.

The target in the next assay is human C5 R885H-mmh (human, UniProt P01031 19-1676). The experiment in a line: cell-based or functional assay.
B1: the “IC50, inhibition of CDC of Daudi cells, C5 depleted human serum and 6.6 nM C5 Variant R885H, 7 nM anti-CD20 antibody” value (from here on “IC50, inhibition … 7 nM anti-CD20 antibody”) turned out to be 1.5 nM.
Regarding B2, the “IC50, inhibition … 7 nM anti-CD20 antibody” value turned out to be 1.3 nM.
In the case of B3, the “IC50, inhibition … 7 nM anti-CD20 antibody” value turned out to be 2.1 nM.
For the molecule B4, the “IC50, inhibition … 7 nM anti-CD20 antibody” value stood at 7 nM.
Consider B5, for which the “IC50, inhibition … 7 nM anti-CD20 antibody” value turned out to be 4.2 nM.
As to B6, the “IC50, inhibition … 7 nM anti-CD20 antibody” value stood at 1.7 nM.
On to B7, for which the “IC50, inhibition … 7 nM anti-CD20 antibody” value is 2.1 nM.

For a further assay, the target named is human C5 R885C-mmh (human, UniProt P01031 19-1676). In words: cell-based or functional assay.
On to B1, for which the “IC50, inhibition of CDC of Daudi cells, C5 depleted human serum and 6.6 nM C5 Variant R885C, 30 nM anti-CD20 antibody” value (shortened to “IC50, inhibition … 30 nM anti-CD20 antibody”) turned out to be 0.96 nM.
With B2, the “IC50, inhibition … 30 nM anti-CD20 antibody” value stood at 0.79 nM.
Take B3: the “IC50, inhibition … 30 nM anti-CD20 antibody” value turned out to be 1.2 nM.
Turning to B4, the “IC50, inhibition … 30 nM anti-CD20 antibody” value amounted to 3.5 nM.
Take B5: the “IC50, inhibition … 30 nM anti-CD20 antibody” value was determined as 2.3 nM.
Regarding B6, the “IC50, inhibition … 30 nM anti-CD20 antibody” value came out at 0.77 nM.
For B7, the “IC50, inhibition … 30 nM anti-CD20 antibody” value worked out at 1.4 nM.

Another assay addresses T1, hC5a. In words: cell-based or functional assay.
Consider B8, for which the “IC50, inhibition of 500 pM hC5a in HEK293/Gα16/hC5aR1/NFAT-luc cells” value stood at 3.5e-11 M.
Turning to B9, the “IC50, inhibition of 500 pM hC5a in HEK293/Gα16/hC5aR1/NFAT-luc cells” value amounted to 4.2e-11 M.
B10: the “IC50, inhibition of 500 pM hC5a in HEK293/Gα16/hC5aR1/NFAT-luc cells” value came to 1.4e-10 M.
In the case of B11, the “IC50, inhibition of 500 pM hC5a in HEK293/Gα16/hC5aR1/NFAT-luc cells” value turned out to be 4.6e-10 M.

The target in the next assay is T2, human C5. The experiment in a line: cell-based or functional assay. The source holds these as a separate data set.
Take B1: the “Human AP % Max Inhibition, hemolysis assay, 5% NHS” value (“Human AP % Max Inhibition” for short) came out at 77%; the “Human AP IC50, hemolysis assay, 5% NHS” value was determined as 31.7 nM; the “Human CP % Max Inhibition, hemolysis assay, 5% NHS” value (“Human CP % Max Inhibition” below) amounted to 98.6%; the “Human CP IC50, hemolysis assay, 5% NHS” value worked out at 13.2 nM.
Regarding B2, the “Human AP % Max Inhibition” value was 82.4%; the “Human AP IC50, hemolysis assay, 5% NHS” value is 28.4 nM; the “Human CP % Max Inhibition” value amounted to 98.1%; the “Human CP IC50, hemolysis assay, 5% NHS” value was found to be 10.3 nM.
For B3, the “Human AP % Max Inhibition” value came out at 73.3%; the “Human AP IC50, hemolysis assay, 5% NHS” value stood at 73 nM; the “Human CP % Max Inhibition” value was 95.7%; the “Human CP IC50, hemolysis assay, 5% NHS” value came to 14.1 nM.
For B4, the “Human CP % Max Inhibition” value was 74% and the “Human CP IC50, hemolysis assay, 5% NHS” value was 44.4 nM.
In the case of B5, the “Human AP % Max Inhibition” value came to 83.2%; the “Human AP IC50, hemolysis assay, 5% NHS” value worked out at 156 nM; the “Human CP % Max Inhibition” value came to 93.7%; the “Human CP IC50, hemolysis assay, 5% NHS” value came to 24.3 nM.
With B6, the “Human AP % Max Inhibition” value came out at 72.2%; the “Human AP IC50, hemolysis assay, 5% NHS” value worked out at 53.5 nM; the “Human CP % Max Inhibition” value was 93.7%; the “Human CP IC50, hemolysis assay, 5% NHS” value came to 11.6 nM.
For B7 the same measures were 77.7%, 65.5 nM, 97.1% and 14.9 nM.

The next assay deals with T2, human C5. In words: SPR (Biacore), mAb captured, dissociation of human C5 at pH7.4 vs pH6.0, 37°C. In short, it runs like this:
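Anti-C5 mAbs (human IgG4 Fc) captured on an amine-coupled mouse anti-human Fc surface; recombinant C5 dissociation followed by Biacore T200 in PBS-T (0.01M phosphate, 0.15M NaCl, 0.05% Tween-20) at pH7.4 or pH6.0. Dissociative half-life (t½) calculated from kd.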
Background: In SPR one partner is held on a chip, and binding of the other changes the refractive index at the surface.
As for B1, the “t½ Ratio pH7.4/pH6.0” value amounted to 7.6.
With B2, the “t½ Ratio pH7.4/pH6.0” value was 8.2.
Regarding B3, the “t½ Ratio pH7.4/pH6.0” value is 36.
Regarding B4, the “t½ Ratio pH7.4/pH6.0” value worked out at 19.
Regarding B5, the “t½ Ratio pH7.4/pH6.0” value amounted to 21.
Consider B6, for which the “t½ Ratio pH7.4/pH6.0” value came to 28.
Regarding B7, the “t½ Ratio pH7.4/pH6.0” value was found to be 7.6.
